Biological target: the molecule itself
Assay: SEC-MALS; Superdex 75 HR 10/30 with miniDAWN light-scattering and refractive-index detectors; 100 ul of purified tGemC1 dimer at ~2.0 mg/ml injected

B1: tGemC1^L123,130E (GemC1 coiled-coil domain variant, residues 64-146, L123E and L130E) (domain or fragment, human, UniProt A6NCL1 64-146, looked up)
chain: DSNFPLPDLCSWEEAQLSSQLYRNKQLQDTLVQKEEELARLHEENNHLRQYLNSALVKCEEEKAKKELSSDEFSKAYGKFRKG
notes: Geminin coiled-coil domain-containing protein 1 (GemC1), human, UniProt A6NCL1, residues 64-146, with L123E and L130E; codon-optimized synthetic gene; The His tag is called cleavable; also called tGemC1 homodimer; tGemC1-tGemC1; source: expressed from pETNKI-His-3CLIC-kan, purified (IMAC, size-exclusion chromatography)
For B1, the “stoichiometry N” value was 2.
